Results: article PMC8991989

Target: Epidermal growth factor receptor (EGFR), labelled for MST (UniProt P00533)
Assay: MST

Substance “FIP-nha, a fungal immunomodulatory protein from Nectria haematococca (natural protein)” has a Kd of 15.5 µM.
